This passage reports percent dissociated to monomers after 6 h in 25 mM CaCl2 results from PMC7269131.

For this experiment, the target named is Factor XIIIA (the A-subunit of coagulation Factor XIII), zymogen (UniProt P00488). The experiment can be described thus: AUC.

Regarding “Factor XIIIA (the A-subunit of coagulation Factor XIII), zymogen (from UniProt P00488 1-732) (enzyme)”, the percent dissociated to monomers after 6 h in 25 mM CaCl2 came to 80%.
